In article doi:10.1101/713677 one finds β-galactosidase activity data, which are given here for one substance.

The target in this experiment is zip (positive control of the BACTH system). As to the kind of experiment: two-hybrid.

The substance “zip (positive control of the BACTH system) (domain or fragment)” yielded a β-galactosidase activity of 63300 Miller units.
